In ChEMBL document CHEMBL1126368, “Carbocyclic phosphonate analogs of 2,3-dideoxyadenosine-5-monophosphate as substrates of 5-phosphoribosyl-1-pyrophosphate (PRPP) synthetate” (Bioorg Med Chem Lett, 1992):

Key:
[1] = Ratio (FA) of Vmax/Km of the compound
[2] = Ratio (FA) of Vmax/Km of AMP to that of compound
[3] = substrate: Nc1ncnc2c1ncn2C1O[C@H](COP(=O)(O)O)[C@H](O)[C@@H]1O; experiment: (§1) Km value as a substrate for Pyrophosphate Synthetase (PRPP); conditions: Escherichia coli
[4] = substrate: Nc1ncnc2c1ncn2CCCCCP(=O)(O)O; experiment: as §1; conditions: Escherichia coli
[5] = substrate: Nc1ncnc2c1ncn2[C@@H]1C[C@H](CCP(=O)(O)O)C[C@@H]1O; experiment: as §1; conditions: Escherichia coli
[6] = substrate: Nc1ncnc2c1ncn2[C@H]1CC[C@@H](CCOP(=O)(O)O)C1; experiment: as §1; conditions: Escherichia coli
[7] = substrate: Nc1ncnc2c1ncn2[C@H]1CC[C@@H](CCP(=O)(O)O)C1; experiment: as §1; conditions: Escherichia coli
[8] = substrate: Nc1ncnc2c1ncn2C1CCC(COP(=O)(O)O)O1; experiment: Vmax as a substrate for 0.4 ug of Pyrophosphate Synthetase (PRPP) per assay; conditions: Escherichia coli
[9] = substrate: Nc1ncnc2c1ncn2C1O[C@H](COP(=O)(O)O)[C@H](O)[C@@H]1O; experiment: (§2) Vmax as a substrate for Pyrophosphate Synthetase (PRPP); conditions: Escherichia coli
[10] = substrate: Nc1ncnc2c1ncn2CCCCCP(=O)(O)O; experiment: as §2; conditions: Escherichia coli
[11] = substrate: Nc1ncnc2c1ncn2CCOCP(=O)(O)O; experiment: as §2; conditions: Escherichia coli
[12] = substrate: Nc1ncnc2c1ncn2[C@@H]1C[C@H](CCP(=O)(O)O)C[C@@H]1O; experiment: as §2; conditions: Escherichia coli
[13] = substrate: Nc1ncnc2c1ncn2[C@H]1CC[C@@H](CC(F)(F)P(=O)(O)O)C1; experiment: as §2; conditions: Escherichia coli
[14] = substrate: Nc1ncnc2c1ncn2[C@H]1CC[C@@H](CCOP(=O)(O)O)C1; experiment: as §2; conditions: Escherichia coli
[15] = substrate: Nc1ncnc2c1ncn2[C@H]1CC[C@@H](CCP(=O)(O)O)C1; experiment: as §2; conditions: Escherichia coli
[16] = substrate: Nc1ncnc2c1ncn2C1CCC(COP(=O)(O)O)O1; experiment: Vmax as a substrate for per mg of Pyrophosphate Synthetase (PRPP); conditions: Escherichia coli
[17] = substrate: Nc1ncnc2c1ncn2C1CCC(COP(=O)(O)O)O1; experiment: Km value as a substrate for 0.4 ug of Phosphribosyl Pyrophosphate Synthetase (PRPP) per assay; conditions: Escherichia coli

**Q.** Which Ratio [1] does the source give for `Nc1ncnc2c1ncn2C1CCC(COP(=O)(O)O)O1` (stereo unspecified) here?
**A.** 1

**Q.** With `Nc1ncnc2c1ncn2CCCCCP(=O)(O)O` as the molecule, how does the Ratio [2] read?
**A.** 32

**Q.** Which Ratio [2] does the source give for `Nc1ncnc2c1ncn2[C@@H]1O[C@H](COP(=O)(O)O)[C@H](O)[C@@H]1O` here?
**A.** 13

**Q.** For `Nc1ncnc2c1ncn2[C@H]1CC[C@@H](CCOP(=O)(O)O)C1`, which Ratio [2] is on record?
**A.** 179

**Q.** With `Nc1ncnc2c1ncn2[C@@H]1C[C@H](CCP(=O)(O)O)C[C@@H]1O` as the molecule, how does the Ratio [2] read?
**A.** 11

**Q.** With `Nc1ncnc2c1ncn2[C@H]1CC[C@@H](CCP(=O)(O)O)C1` as the molecule, how does the Ratio [2] read?
**A.** 63

B1: Ribose-phosphate pyrophosphokinase 1 (Homo sapiens), P60891 (protein)
chain: MPNIKIFSGSSHQDLSQKIADRLGLELGKVVTKKFSNQETCVEIGESVRGEDVYIVQSGCGEINDNLMELLIMINACKIASASRVTAVIPCFPYARQDKKDKSRAPISAKLVANMLSVAGADHIITMDLHASQIQGFFDIPVDNLYAEPAVLKWIRENISEWRNCTIVSPDAGGAKRVTSIADRLNVDFALIHKERKKANEVDRMVLVGDVKDRVAILVDDMADTCGTICHAADKLLSAGATRVYAILTHGIFSGPAISRINNACFEAVVVTNTIPQEDKMKHCSKIQVIDISMILAEAIRRTHNGESVSYLFSHVPL
**Q.** With B1 as the molecule, how does the Km [3] read?
**A.** 1700 µM

**Q.** What about the Km [4] of the same molecule?
**A.** 690 µM

**Q.** What about the Km [5] of the same molecule?
**A.** 240 µM

**Q.** What about the Km [6] of the same molecule?
**A.** 260 µM

**Q.** And the Km [7]?
**A.** 550 µM

**Q.** What about the Vmax [8] of the same molecule?
**A.** 100%

**Q.** What about the Vmax [9] of the same molecule?
**A.** 45%

**Q.** And the Vmax [10]?
**A.** 7.5%

**Q.** What about the Vmax [11] of the same molecule?
**A.** 0.2%

**Q.** And the Vmax [12]?
**A.** 7.4%

**Q.** What about the Vmax [13] of the same molecule?
**A.** 0.07%

**Q.** And the Vmax [14]?
**A.** 0.5%

**Q.** What about the Vmax [15] of the same molecule?
**A.** 3%

**Q.** What about the Vmax [16] of the same molecule?
**A.** 34.5 µM/h

**Q.** What about the Km [17] of the same molecule?
**A.** 290 µM
